Measured values published in patent US20180155451A1 (published 2018).

T1: FcγRIIa H (FcγRIIa, type H allotype, His at position 131), extracellular domain with C-terminal His tag (human, UniProt P12318 34-217)
T1 construct: extracellular domain; Soluble receptor expressed in FreeStyle293 cells; analyte in Biacore; also called FcgRIIa H; 2aH; not shown: C-terminal His tag
T1 sequence (looked up): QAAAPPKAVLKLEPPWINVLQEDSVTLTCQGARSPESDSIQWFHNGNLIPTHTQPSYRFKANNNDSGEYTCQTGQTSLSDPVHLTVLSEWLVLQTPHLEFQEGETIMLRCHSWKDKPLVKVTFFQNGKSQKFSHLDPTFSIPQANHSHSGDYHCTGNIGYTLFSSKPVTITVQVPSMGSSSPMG

T2: FcγRIIb, extracellular domain with C-terminal His tag (human, UniProt P31994 43-217)
T2 construct: extracellular domain; Soluble receptor expressed in FreeStyle293 cells; analyte in Biacore; also called FcgRIIb; 2b; not shown: C-terminal His tag
T2 sequence (looked up): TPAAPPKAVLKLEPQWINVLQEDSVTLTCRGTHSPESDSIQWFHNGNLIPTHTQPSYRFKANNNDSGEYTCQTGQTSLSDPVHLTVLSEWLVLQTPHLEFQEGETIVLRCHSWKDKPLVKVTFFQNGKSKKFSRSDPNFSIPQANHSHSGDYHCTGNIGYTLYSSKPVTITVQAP

B1: GpH7-A5/GpH7-B3 variant D270_15Y/GpL16-k0 (antibody, human IgG1, kappa)
heavy 1: not shown
heavy 2: not shown
light: DIVMTQSPLSLPVTPGEPASISCQASESLVHSNRNTYLHWYLQKPGQSPQLLIYKVSNRFSGVPDRFSGSGSGTDFTLKISRVEAEDVGVYYCSQNTHVPPTFGQGTKVEIERTVAAPSVFIFPPSDEQLKSGTASVVCLLNNFYPREAKVQWKVDNALQSGNSQESVTEQDSKDSTYSLSSTLTLSKADYEKHKVYACEVTHQGLSSPVTKSFNRGEC
notes: Heterodimerized IgG1; mutation only in the GpH7-B3 chain; also called He Ab
B2: GpH7-A5/GpH7-B3 variant D270_16H/GpL16-k0 (antibody, human IgG1, kappa)
heavy 1: not shown
heavy 2: not shown
light: B1 light
notes: as for B1
B3: GpH7-A5/GpH7-B3 variant D270_18N/GpL16-k0 (antibody, human IgG1, kappa)
heavy 1: not shown
heavy 2: not shown
light: B1 light
notes: as for B1
B4: GpH7-A5/GpH7-B3 variant D270_19Q/GpL16-k0 (antibody, human IgG1, kappa)
heavy 1: not shown
heavy 2: not shown
light: B1 light
notes: as for B1
B5: GpH7-A5/GpH7-B3 variant D270_20W/GpL16-k0 (antibody, human IgG1, kappa)
heavy 1: not shown
heavy 2: not shown
light: B1 light
notes: as for B1
B6: GpH7-A5/GpH7-B3 variant E269_02A/GpL16-k0 (antibody, human IgG1, kappa)
heavy 1: not shown
heavy 2: not shown
light: B1 light
notes: as for B1
B7: GpH7-A5/GpH7-B3 variant E269_03V/GpL16-k0 (antibody, human IgG1, kappa)
heavy 1: not shown
heavy 2: not shown
light: B1 light
notes: as for B1
B8: GpH7-A5/GpH7-B3 variant E269_04F/GpL16-k0 (antibody, human IgG1, kappa)
heavy 1: not shown
heavy 2: not shown
light: B1 light
notes: as for B1
B9: GpH7-A5/GpH7-B3 variant E269_06M/GpL16-k0 (antibody, human IgG1, kappa)
heavy 1: not shown
heavy 2: not shown
light: B1 light
notes: as for B1
B10: GpH7-A5/GpH7-B3 variant E269_07I/GpL16-k0 (antibody, human IgG1, kappa)
heavy 1: not shown
heavy 2: not shown
light: B1 light
notes: as for B1
B11: GpH7-A5/GpH7-B3 variant E269_08L/GpL16-k0 (antibody, human IgG1, kappa)
heavy 1: not shown
heavy 2: not shown
light: B1 light
notes: as for B1
B12: GpH7-A5/GpH7-B3 variant E269_11K/GpL16-k0 (antibody, human IgG1, kappa)
heavy 1: not shown
heavy 2: not shown
light: B1 light
notes: as for B1
B13: GpH7-A5/GpH7-B3 variant E269_12R/GpL16-k0 (antibody, human IgG1, kappa)
heavy 1: not shown
heavy 2: not shown
light: B1 light
notes: as for B1
B14: GpH7-A5/GpH7-B3 variant E269_13S/GpL16-k0 (antibody, human IgG1, kappa)
heavy 1: not shown
heavy 2: not shown
light: B1 light
notes: as for B1
B15: GpH7-A5/GpH7-B3 variant E269_14T/GpL16-k0 (antibody, human IgG1, kappa)
heavy 1: not shown
heavy 2: not shown
light: B1 light
notes: as for B1
B16: GpH7-A5/GpH7-B3 variant E269_15Y/GpL16-k0 (antibody, human IgG1, kappa)
heavy 1: not shown
heavy 2: not shown
light: B1 light
notes: as for B1
B17: GpH7-A5/GpH7-B3 variant E269_16H/GpL16-k0 (antibody, human IgG1, kappa)
heavy 1: not shown
heavy 2: not shown
light: B1 light
notes: as for B1
B18: GpH7-A5/GpH7-B3 variant E269_18N/GpL16-k0 (antibody, human IgG1, kappa)
heavy 1: not shown
heavy 2: not shown
light: B1 light
notes: as for B1

Target: T1, FcγRIIa H (FcγRIIa, type H allotype, …)
Assay: ratio of He/Con_2aH to He/Con_2b (FcγRIIa H over FcγRIIb), SPR

| He_2aH/2b (IIaH/IIb) | Binder |
| --- | --- |
| 1.6 | B1 |
| 1.51 | B2 |
| 1.55 | B3 |
| 1.77 | B4 |
| 1.74 | B5 |
| 1.56 | B6 |
| 1.49 | B7 |
| 1.52 | B8 |
| 1.58 | B9 |
| 1.52 | B10 |
| 1.57 | B11 |
| 2.87 | B12 |
| 1.86 | B13 |
| 1.46 | B14 |
| 1.37 | B15 |
| 1.57 | B16 |
| 1.53 | B17 |
| 1.44 | B18 |

Target: T1, FcγRIIa H (FcγRIIa, type H allotype, …)
Assay: SPR (Biacore), captured antibody, FcγR as analyte

| He/Con_2aH | Binder |
| --- | --- |
| 71.9 relative, GpH7-A5/GpH7-B3/GpL16-k0 = 100 | B1 |
| 71.5 relative, GpH7-A5/GpH7-B3/GpL16-k0 = 100 | B2 |
| 62.5 relative, GpH7-A5/GpH7-B3/GpL16-k0 = 100 | B3 |
| 85 relative, GpH7-A5/GpH7-B3/GpL16-k0 = 100 | B4 |
| 60.2 relative, GpH7-A5/GpH7-B3/GpL16-k0 = 100 | B5 |
| 77.8 relative, GpH7-A5/GpH7-B3/GpL16-k0 = 100 | B6 |
| 67.5 relative, GpH7-A5/GpH7-B3/GpL16-k0 = 100 | B7 |
| 68.5 relative, GpH7-A5/GpH7-B3/GpL16-k0 = 100 | B8 |
| 73.6 relative, GpH7-A5/GpH7-B3/GpL16-k0 = 100 | B9 |
| 66.6 relative, GpH7-A5/GpH7-B3/GpL16-k0 = 100 | B10 |
| 67.4 relative, GpH7-A5/GpH7-B3/GpL16-k0 = 100 | B11 |
| 51.1 relative, GpH7-A5/GpH7-B3/GpL16-k0 = 100 | B12 |
| 46.8 relative, GpH7-A5/GpH7-B3/GpL16-k0 = 100 | B13 |
| 70 relative, GpH7-A5/GpH7-B3/GpL16-k0 = 100 | B14 |
| 69.6 relative, GpH7-A5/GpH7-B3/GpL16-k0 = 100 | B15 |
| 70.4 relative, GpH7-A5/GpH7-B3/GpL16-k0 = 100 | B16 |
| 59 relative, GpH7-A5/GpH7-B3/GpL16-k0 = 100 | B17 |
| 64.4 relative, GpH7-A5/GpH7-B3/GpL16-k0 = 100 | B18 |

Target: T2, FcγRIIb, extracellular domain with …
Assay: SPR (Biacore), captured antibody, FcγR as analyte

| He/Con_2b | Binder |
| --- | --- |
| 44.9 relative, GpH7-A5/GpH7-B3/GpL16-k0 = 100 | B1 |
| 47.2 relative, GpH7-A5/GpH7-B3/GpL16-k0 = 100 | B2 |
| 40.3 relative, GpH7-A5/GpH7-B3/GpL16-k0 = 100 | B3 |
| 48 relative, GpH7-A5/GpH7-B3/GpL16-k0 = 100 | B4 |
| 34.7 relative, GpH7-A5/GpH7-B3/GpL16-k0 = 100 | B5 |
| 49.9 relative, GpH7-A5/GpH7-B3/GpL16-k0 = 100 | B6 |
| 45.1 relative, GpH7-A5/GpH7-B3/GpL16-k0 = 100 | B7 |
| 45 relative, GpH7-A5/GpH7-B3/GpL16-k0 = 100 | B8 |
| 46.7 relative, GpH7-A5/GpH7-B3/GpL16-k0 = 100 | B9 |
| 43.9 relative, GpH7-A5/GpH7-B3/GpL16-k0 = 100 | B10 |
| 42.9 relative, GpH7-A5/GpH7-B3/GpL16-k0 = 100 | B11 |
| 17.8 relative, GpH7-A5/GpH7-B3/GpL16-k0 = 100 | B12 |
| 25.2 relative, GpH7-A5/GpH7-B3/GpL16-k0 = 100 | B13 |
| 47.8 relative, GpH7-A5/GpH7-B3/GpL16-k0 = 100 | B14 |
| 50.6 relative, GpH7-A5/GpH7-B3/GpL16-k0 = 100 | B15 |
| 44.7 relative, GpH7-A5/GpH7-B3/GpL16-k0 = 100 | B16 |
| 38.5 relative, GpH7-A5/GpH7-B3/GpL16-k0 = 100 | B17 |
| 44.8 relative, GpH7-A5/GpH7-B3/GpL16-k0 = 100 | B18 |
